Experiments:
[1] = target: the molecule itself; test: SEC-MALS; single purified protein; 50 uL at 2 mg/mL on a WTC 015S5 column, 50 mM HEPES, 150 mM NaCl, 200 mM arginine, 1 mM TCEP, pH 8.0, 0.8 mL/min
[2] = target: T1, periplasmic N-domain of RcpA (RcpAN) (Pseudomonas aeruginosa, UniProt Q9HW96 28-115); test: SEC-MALS; co-expressed (two plasmids) and co-purified RcpC_(33-303)-RcpAN complex; 50 uL at 2 mg/mL on a WTC 015S5 column, 50 mM HEPES, 150 mM NaCl, 200 mM arginine, 1 mM TCEP, pH 8.0; details: both partners purified
T1 construct: RcpA outer membrane secretin, Pseudomonas aeruginosa, periplasmic N-domain (9.7 kDa, small globular Ig domain fold); Gene codon optimised, in pET28a; also called His-RcpAN; His-RspAN; source: E. coli BL21 (DE3), purified (Ni-NTA, SEC); also co-expressed with RcpC constructs and co-purified
T1 sequence: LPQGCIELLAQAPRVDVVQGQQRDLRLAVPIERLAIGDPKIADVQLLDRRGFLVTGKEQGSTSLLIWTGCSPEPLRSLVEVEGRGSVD

B1: RcpC periplasmic domain (RcpC_(33-303)) (domain or fragment)
chain: NAHAPSVAPASATVDASLEKLERKPVLVASRDLPALAVIGRDDLSVELLRTAPVGSYDRPEALLGKRVWVAVPAGSILSAATLEPGGPLARTIRPDERAMAIAVDEVVGGGGFVLPGDYVDVMLFVRDERDGESTPLAQLVLPGVRVLTYGERIAVGSDGQDRSNQEKDPRPPRTAVLAVPEDGVARLMLASQAGSLRLAIRSKDEELYRREQEGALLQASLGAPSAALSLDQLLERRKPTAPSVRSAAPRVPVANGVTVYRGSAMTHEAP
notes: RcpC, Pseudomonas aeruginosa, residues 33-303 of the full-length protein (RcpC_(1-303)); lacks the N-terminal transmembrane helix; holds D1, D2, linker L3 and the C-terminal β-hairpin; Gene codon optimised, in pET21a; also called RcpCΔN; periplasmic region of RcpC; source: E. coli BL21 (DE3), purified (Ni-NTA, SEC); also co-expressed with RcpAN and co-purified; not shown: His tag (from the Ni-NTA …)
stoichiometry N [1]: 12 copies
stoichiometry N [2]: 2 RcpC per RcpA (12:6 RcpC:RcpA)

Reference: paper PMC12307814, “The structure of the Tad pilus alignment complex reveals a periplasmic conduit for pilus extension” (Nature Communications, 2025)
